We go through 36 variants from the RNAGym collection of RNA variant scans (doi:10.1021/acssynbio.7b00057).

B1: Pistol ribozyme (parent)
chain: GGGUCGUUGUUCCAUAAUCGCGUGGAUAUGGCACGCAAGUUUCUACCGGGCACCGUAAAUGUCCGACUGGAGCCGUUCGGGCGGCUAUAAACAGACCUCAGGCCCGAAGCGUGGCGGCACCUGCCGCCGGUGGUAAAAAAGAUCGGAAGAGCACACGUCU

This data set covers variants of B1. The data set is described as follows: aptazyme ON/OFF ratio, guanine; higher = stronger switching; co-transcriptional cleavage with and without guanine.
For the variant GGGUCGAAGCUAGAUAAUCGCGUGGAUAUGGCACGCAAGUUUCUACCGGGCACCGUAAAUGUCCGACUGGAGCCGUUCGGGCGGCUAUAAACAGACCUCAGGCCCGAAGCGUGGCGGCACCUGCCGCCGGUGGUAAAAAAGAUCGGAAGAGCACACGUCU, the “aptazyme ON/OFF ratio” value stood at 1.08.

Regarding GGGUCGUUGUAGGAUAAUCGCGUGGAUAUGGCACGCAAGUUUCUACCGGGCACCGUAAAUGUCCGACUGGAGCCGUUCGGGCGGCUAUAAACAGACCUCAGGCCCGAAGCGUGGCGGCACCUGCCGCCGGUGGUAAAAAAGAUCGGAAGAGCACACGUCU, the “aptazyme ON/OFF ratio” value turned out to be 1.18.

Turning to GGGUCGGUCGCGAAUAAUCGCGUGGAUAUGGCACGCAAGUUUCUACCGGGCACCGUAAAUGUCCGACUGGAGCCGUUCGGGCGGCUAUAAACAGACCUCAGGCCCGAAGCGUGGCGGCACCUGCCGCCGGUGGUAAAAAAGAUCGGAAGAGCACACGUCU, the “aptazyme ON/OFF ratio” value was 1.27. To GGGUCGGGGUGUUAUAAUCGCGUGGAUAUGGCACGCAAGUUUCUACCGGGCACCGUAAAUGUCCGACUGGAGCCGUUCGGGCGGCUAUAAACAGACCUCAGGCCCGAAGCGUGGCGGCACCUGCCGCCGGUGGUAAAAAAGAUCGGAAGAGCACACGUCU belongs 1.37. With GGGUCGGACCGAAAUAAUCGCGUGGAUAUGGCACGCAAGUUUCUACCGGGCACCGUAAAUGUCCGACUGGAGCCGUUCGGGCGGCUAUAAACAGACCUCAGGCCCGAAGCGUGGCGGCACCUGCCGCCGGUGGUAAAAAAGAUCGGAAGAGCACACGUCU, the “aptazyme ON/OFF ratio” value amounted to 1.02. To GGGUCGGGGCAAGAUAAUCGCGUGGAUAUGGCACGCAAGUUUCUACCGGGCACCGUAAAUGUCCGACUGGAGCCGUUCGGGCGGCUAUAAACAGACCUCAGGCCCGAAGCGUGGCGGCACCUGCCGCCGGUGGUAAAAAAGAUCGGAAGAGCACACGUCU belongs 1.12. The figure for GGGUCGCAUGGUUAUAAUCGCGUGGAUAUGGCACGCAAGUUUCUACCGGGCACCGUAAAUGUCCGACUGGAGCCGUUCGGGCGGCUAUAAACAGACCUCAGGCCCGAAGCGUGGCGGCACCUGCCGCCGGUGGUAAAAAAGAUCGGAAGAGCACACGUCU is 1.3.

Regarding GGGUCGCGCUCAGAUAAUCGCGUGGAUAUGGCACGCAAGUUUCUACCGGGCACCGUAAAUGUCCGACUGGAGCCGUUCGGGCGGCUAUAAACAGACCUCAGGCCCGAAGCGUGGCGGCACCUGCCGCCGGUGGUAAAAAAGAUCGGAAGAGCACACGUCU, the “aptazyme ON/OFF ratio” value turned out to be 1.09. To GGGUCGCCUCCCUAUAAUCGCGUGGAUAUGGCACGCAAGUUUCUACCGGGCACCGUAAAUGUCCGACUGGAGCCGUUCGGGCGGCUAUAAACAGACCUCAGGCCCGAAGCGUGGCGGCACCUGCCGCCGGUGGUAAAAAAGAUCGGAAGAGCACACGUCU belongs 1.04; to GGGUCGAGUGAUGAUAAUCGCGUGGAUAUGGCACGCAAGUUUCUACCGGGCACCGUAAAUGUCCGACUGGAGCCGUUCGGGCGGCUAUAAACAGACCUCAGGCCCGAAGCGUGGCGGCACCUGCCGCCGGUGGUAAAAAAGAUCGGAAGAGCACACGUCU, 1.18; to GGGUCGAUAACCAAUAAUCGCGUGGAUAUGGCACGCAAGUUUCUACCGGGCACCGUAAAUGUCCGACUGGAGCCGUUCGGGCGGCUAUAAACAGACCUCAGGCCCGAAGCGUGGCGGCACCUGCCGCCGGUGGUAAAAAAGAUCGGAAGAGCACACGUCU, 1.02. The figure for GGGUCGAACUCAUAUAAUCGCGUGGAUAUGGCACGCAAGUUUCUACCGGGCACCGUAAAUGUCCGACUGGAGCCGUUCGGGCGGCUAUAAACAGACCUCAGGCCCGAAGCGUGGCGGCACCUGCCGCCGGUGGUAAAAAAGAUCGGAAGAGCACACGUCU is 1.05. The figure for GGGUCGCUGGGGCAUAAUCGCGUGGAUAUGGCACGCAAGUUUCUACCGGGCACCGUAAAUGUCCGACUGGAGCCGUUCGGGCGGCUAUAAACAGACCUCAGGCCCGAAGCGUGGCGGCACCUGCCGCCGGUGGUAAAAAAGAUCGGAAGAGCACACGUCU is 1.22. Consider GGGUCGACAAACGAUAAUCGCGUGGAUAUGGCACGCAAGUUUCUACCGGGCACCGUAAAUGUCCGACUGGAGCCGUUCGGGCGGCUAUAAACAGACCUCAGGCCCGAAGCGUGGCGGCACCUGCCGCCGGUGGUAAAAAAGAUCGGAAGAGCACACGUCU, for which the “aptazyme ON/OFF ratio” value came out at 1.12.

For GGGUCGCGUAUCGAUAAUCGCGUGGAUAUGGCACGCAAGUUUCUACCGGGCACCGUAAAUGUCCGACUGGAGCCGUUCGGGCGGCUAUAAACAGACCUCAGGCCCGAAGCGUGGCGGCACCUGCCGCCGGUGGUAAAAAAGAUCGGAAGAGCACACGUCU, the “aptazyme ON/OFF ratio” value was 1.08. For GGGUCGUACACCCAUAAUCGCGUGGAUAUGGCACGCAAGUUUCUACCGGGCACCGUAAAUGUCCGACUGGAGCCGUUCGGGCGGCUAUAAACAGACCUCAGGCCCGAAGCGUGGCGGCACCUGCCGCCGGUGGUAAAAAAGAUCGGAAGAGCACACGUCU, the “aptazyme ON/OFF ratio” value is 1.01.

In the case of GGGUCGGGAAAGAAUAAUCGCGUGGAUAUGGCACGCAAGUUUCUACCGGGCACCGUAAAUGUCCGACUGGAGCCGUUCGGGCGGCUAUAAACAGACCUCAGGCCCGAAGCGUGGCGGCACCUGCCGCCGGUGGUAAAAAAGAUCGGAAGAGCACACGUCU, the “aptazyme ON/OFF ratio” value stood at 1.15.

For GGGUCGCCGCACCAUAAUCGCGUGGAUAUGGCACGCAAGUUUCUACCGGGCACCGUAAAUGUCCGACUGGAGCCGUUCGGGCGGCUAUAAACAGACCUCAGGCCCGAAGCGUGGCGGCACCUGCCGCCGGUGGUAAAAAAGAUCGGAAGAGCACACGUCU, the “aptazyme ON/OFF ratio” value was determined as 1.9. Take GGGUCGGAUUACCAUAAUCGCGUGGAUAUGGCACGCAAGUUUCUACCGGGCACCGUAAAUGUCCGACUGGAGCCGUUCGGGCGGCUAUAAACAGACCUCAGGCCCGAAGCGUGGCGGCACCUGCCGCCGGUGGUAAAAAAGAUCGGAAGAGCACACGUCU: the “aptazyme ON/OFF ratio” value is 1.39. The figure for GGGUCGAACUUCGAUAAUCGCGUGGAUAUGGCACGCAAGUUUCUACCGGGCACCGUAAAUGUCCGACUGGAGCCGUUCGGGCGGCUAUAAACAGACCUCAGGCCCGAAGCGUGGCGGCACCUGCCGCCGGUGGUAAAAAAGAUCGGAAGAGCACACGUCU is 1.03. The figure for GGGUCGAAAGUAGAUAAUCGCGUGGAUAUGGCACGCAAGUUUCUACCGGGCACCGUAAAUGUCCGACUGGAGCCGUUCGGGCGGCUAUAAACAGACCUCAGGCCCGAAGCGUGGCGGCACCUGCCGCCGGUGGUAAAAAAGAUCGGAAGAGCACACGUCU is 1.12; for GGGUCGAUCCCAAAUAAUCGCGUGGAUAUGGCACGCAAGUUUCUACCGGGCACCGUAAAUGUCCGACUGGAGCCGUUCGGGCGGCUAUAAACAGACCUCAGGCCCGAAGCGUGGCGGCACCUGCCGCCGGUGGUAAAAAAGAUCGGAAGAGCACACGUCU it is 1.02; for GGGUCGAACUGAAAUAAUCGCGUGGAUAUGGCACGCAAGUUUCUACCGGGCACCGUAAAUGUCCGACUGGAGCCGUUCGGGCGGCUAUAAACAGACCUCAGGCCCGAAGCGUGGCGGCACCUGCCGCCGGUGGUAAAAAAGAUCGGAAGAGCACACGUCU it is 1.17.

In the case of GGGUCGGAUUUAAAUAAUCGCGUGGAUAUGGCACGCAAGUUUCUACCGGGCACCGUAAAUGUCCGACUGGAGCCGUUCGGGCGGCUAUAAACAGACCUCAGGCCCGAAGCGUGGCGGCACCUGCCGCCGGUGGUAAAAAAGAUCGGAAGAGCACACGUCU, the “aptazyme ON/OFF ratio” value is 1.1. With GGGUCGUCACGACAUAAUCGCGUGGAUAUGGCACGCAAGUUUCUACCGGGCACCGUAAAUGUCCGACUGGAGCCGUUCGGGCGGCUAUAAACAGACCUCAGGCCCGAAGCGUGGCGGCACCUGCCGCCGGUGGUAAAAAAGAUCGGAAGAGCACACGUCU, the “aptazyme ON/OFF ratio” value worked out at 1.25.

Take GGGUCGCGAUUAGAUAAUCGCGUGGAUAUGGCACGCAAGUUUCUACCGGGCACCGUAAAUGUCCGACUGGAGCCGUUCGGGCGGCUAUAAACAGACCUCAGGCCCGAAGCGUGGCGGCACCUGCCGCCGGUGGUAAAAAAGAUCGGAAGAGCACACGUCU: the “aptazyme ON/OFF ratio” value amounted to 1.16. The figure for GGGUCGUCGCUGCAUAAUCGCGUGGAUAUGGCACGCAAGUUUCUACCGGGCACCGUAAAUGUCCGACUGGAGCCGUUCGGGCGGCUAUAAACAGACCUCAGGCCCGAAGCGUGGCGGCACCUGCCGCCGGUGGUAAAAAAGAUCGGAAGAGCACACGUCU is 1.29. The figure for GGGUCGUGUGAGUAUAAUCGCGUGGAUAUGGCACGCAAGUUUCUACCGGGCACCGUAAAUGUCCGACUGGAGCCGUUCGGGCGGCUAUAAACAGACCUCAGGCCCGAAGCGUGGCGGCACCUGCCGCCGGUGGUAAAAAAGAUCGGAAGAGCACACGUCU is 1.04; for GGGUCGUGCUAACAUAAUCGCGUGGAUAUGGCACGCAAGUUUCUACCGGGCACCGUAAAUGUCCGACUGGAGCCGUUCGGGCGGCUAUAAACAGACCUCAGGCCCGAAGCGUGGCGGCACCUGCCGCCGGUGGUAAAAAAGAUCGGAAGAGCACACGUCU it is 1.11; for GGGUCGACCUAGGAUAAUCGCGUGGAUAUGGCACGCAAGUUUCUACCGGGCACCGUAAAUGUCCGACUGGAGCCGUUCGGGCGGCUAUAAACAGACCUCAGGCCCGAAGCGUGGCGGCACCUGCCGCCGGUGGUAAAAAAGAUCGGAAGAGCACACGUCU it is 1.16. To GGGUCGUAUUCCCAUAAUCGCGUGGAUAUGGCACGCAAGUUUCUACCGGGCACCGUAAAUGUCCGACUGGAGCCGUUCGGGCGGCUAUAAACAGACCUCAGGCCCGAAGCGUGGCGGCACCUGCCGCCGGUGGUAAAAAAGAUCGGAAGAGCACACGUCU belongs 1.03.

Regarding GGGUCGGACUGCCAUAAUCGCGUGGAUAUGGCACGCAAGUUUCUACCGGGCACCGUAAAUGUCCGACUGGAGCCGUUCGGGCGGCUAUAAACAGACCUCAGGCCCGAAGCGUGGCGGCACCUGCCGCCGGUGGUAAAAAAGAUCGGAAGAGCACACGUCU, the “aptazyme ON/OFF ratio” value is 1.04.

Regarding GGGUCGCCGAAAUAUAAUCGCGUGGAUAUGGCACGCAAGUUUCUACCGGGCACCGUAAAUGUCCGACUGGAGCCGUUCGGGCGGCUAUAAACAGACCUCAGGCCCGAAGCGUGGCGGCACCUGCCGCCGGUGGUAAAAAAGAUCGGAAGAGCACACGUCU, the “aptazyme ON/OFF ratio” value worked out at 1.13.

For the variant GGGUCGGUGGUGUAUAAUCGCGUGGAUAUGGCACGCAAGUUUCUACCGGGCACCGUAAAUGUCCGACUGGAGCCGUUCGGGCGGCUAUAAACAGACCUCAGGCCCGAAGCGUGGCGGCACCUGCCGCCGGUGGUAAAAAAGAUCGGAAGAGCACACGUCU, the “aptazyme ON/OFF ratio” value is 1.12. To GGGUCGCAAUAGGAUAAUCGCGUGGAUAUGGCACGCAAGUUUCUACCGGGCACCGUAAAUGUCCGACUGGAGCCGUUCGGGCGGCUAUAAACAGACCUCAGGCCCGAAGCGUGGCGGCACCUGCCGCCGGUGGUAAAAAAGAUCGGAAGAGCACACGUCU belongs 1.19; to GGGUCGGGUUUAGAUAAUCGCGUGGAUAUGGCACGCAAGUUUCUACCGGGCACCGUAAAUGUCCGACUGGAGCCGUUCGGGCGGCUAUAAACAGACCUCAGGCCCGAAGCGUGGCGGCACCUGCCGCCGGUGGUAAAAAAGAUCGGAAGAGCACACGUCU, 1.1.
